According to PMC5993831 (2018):

Target: PD-L1 (Mus musculus, UniProt Q9EP73)
Sequence (Q9EP73 19-239): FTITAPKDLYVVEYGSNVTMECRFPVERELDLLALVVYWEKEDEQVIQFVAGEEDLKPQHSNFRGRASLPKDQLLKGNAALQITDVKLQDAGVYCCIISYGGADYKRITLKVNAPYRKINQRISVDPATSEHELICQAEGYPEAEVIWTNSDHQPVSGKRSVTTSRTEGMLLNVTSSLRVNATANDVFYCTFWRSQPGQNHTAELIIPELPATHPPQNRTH

- Kd: 219 pM
B1: PD-L1 trap (trimeric PD-1 ECD fused to CMP1 trimerization domain) 21-150 (protein)
chain: SGWLLEVPNGPWRSLTFYPAWLTVSEGANATFTCSLSNWSEDLMLNWNRLSPSNQTEKQAAFCNGLSQPVQDARFQIIQLPNRHDFHMNILDTRRNDSGIYLCGAISLHPKAKIEESPGAELVVTERILE
modifications: trimeric fusion with mouse CMP1 residues 458-500 via hinge linker, His6 tag
